These results are taken from article PMC12990809.

Holding throughout (test): pulldown
Data set [1] deals with T1, HNRNPR (Gallus gallus) (UniProt A0A8V0YGA1).
T1 sequence: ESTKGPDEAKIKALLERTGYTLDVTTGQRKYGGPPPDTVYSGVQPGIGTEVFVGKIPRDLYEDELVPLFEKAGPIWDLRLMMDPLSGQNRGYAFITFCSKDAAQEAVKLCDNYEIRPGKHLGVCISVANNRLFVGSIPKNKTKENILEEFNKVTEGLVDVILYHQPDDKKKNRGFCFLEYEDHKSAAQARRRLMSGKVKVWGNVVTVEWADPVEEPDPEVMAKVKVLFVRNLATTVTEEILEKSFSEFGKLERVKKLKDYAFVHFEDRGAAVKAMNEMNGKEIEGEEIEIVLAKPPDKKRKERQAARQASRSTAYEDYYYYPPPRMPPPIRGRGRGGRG
To be noted: 20 nM protein, 1.5 uM RNA pool; 20 mM HEPES pH 7.8, 70 mM KCl, 10 mM NaCl, 10% glycerol, 2 mM DTT, 0.1 ug/uL BSA; 30 min, 4 C (protocol of this paper; not …); cited from earlier work.

The target of data set [2] is T2, PK03611.1 N266D (Cannabis sativa) (UniProt A0A7J6FG33).
T2 sequence: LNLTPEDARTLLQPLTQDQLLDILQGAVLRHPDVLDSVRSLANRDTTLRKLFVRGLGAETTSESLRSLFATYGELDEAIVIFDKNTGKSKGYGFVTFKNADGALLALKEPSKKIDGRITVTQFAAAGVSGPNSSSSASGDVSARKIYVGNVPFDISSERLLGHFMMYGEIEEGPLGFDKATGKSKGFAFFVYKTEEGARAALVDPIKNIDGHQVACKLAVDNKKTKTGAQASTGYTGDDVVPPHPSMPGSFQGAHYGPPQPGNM
To be noted: 20 nM protein, 1.5 uM RNA pool; 20 mM HEPES pH 7.8, 70 mM KCl, 10 mM NaCl, 10% glycerol, 2 mM DTT, 0.1 ug/uL BSA; 30 min, 4 C.

Data set [3] deals with T3, rnp-2 (Caenorhabditis elegans) (UniProt Q21322).
T3 sequence: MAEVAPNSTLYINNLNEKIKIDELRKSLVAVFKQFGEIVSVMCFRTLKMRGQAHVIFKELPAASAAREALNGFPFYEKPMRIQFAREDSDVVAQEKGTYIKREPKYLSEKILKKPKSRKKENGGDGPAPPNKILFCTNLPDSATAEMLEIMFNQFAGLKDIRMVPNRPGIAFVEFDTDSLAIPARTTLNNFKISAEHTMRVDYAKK
The conditions noted are these: 20 nM protein, 1.5 uM RNA pool; 20 mM HEPES pH 7.8, 70 mM KCl, 10 mM NaCl, 10% glycerol, 2 mM DTT, 0.1 ug/uL BSA; 30 min, 4 C.

The target in data set [4] is T4, CBG13971 (Caenorhabditis briggsae) (UniProt A8XIX4).
T4 sequence: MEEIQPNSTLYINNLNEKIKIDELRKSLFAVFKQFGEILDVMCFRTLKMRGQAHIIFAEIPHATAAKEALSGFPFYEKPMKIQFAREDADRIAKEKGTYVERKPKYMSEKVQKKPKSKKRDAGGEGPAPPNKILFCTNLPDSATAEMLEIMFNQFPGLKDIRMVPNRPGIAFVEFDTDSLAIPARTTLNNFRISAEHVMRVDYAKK
To be noted: 20 nM protein, 1.5 uM RNA pool; 20 mM HEPES pH 7.8, 70 mM KCl, 10 mM NaCl, 10% glycerol, 2 mM DTT, 0.1 ug/uL BSA; 30 min, 4 C.

The target of data set [5] is T5, hnrnpr (Xenopus tropicalis) (UniProt A0A8J0QQ94).
T5 sequence: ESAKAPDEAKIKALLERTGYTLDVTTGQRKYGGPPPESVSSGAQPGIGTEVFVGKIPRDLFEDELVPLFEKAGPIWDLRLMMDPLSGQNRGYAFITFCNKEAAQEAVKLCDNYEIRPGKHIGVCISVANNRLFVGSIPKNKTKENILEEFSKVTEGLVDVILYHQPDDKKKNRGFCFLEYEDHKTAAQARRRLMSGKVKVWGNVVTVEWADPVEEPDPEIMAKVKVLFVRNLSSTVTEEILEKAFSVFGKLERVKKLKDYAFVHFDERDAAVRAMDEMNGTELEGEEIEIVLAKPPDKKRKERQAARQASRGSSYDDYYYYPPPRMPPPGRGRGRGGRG
To be noted: 20 nM protein, 1.5 uM RNA pool; 20 mM HEPES pH 7.8, 70 mM KCl, 10 mM NaCl, 10% glycerol, 2 mM DTT, 0.1 ug/uL BSA; 30 min, 4 C (protocol of this paper; not …); cited from earlier work.

Data set [6] deals with T6, rbm38 (Danio rerio) (UniProt A0A8M1NF18).
T6 sequence: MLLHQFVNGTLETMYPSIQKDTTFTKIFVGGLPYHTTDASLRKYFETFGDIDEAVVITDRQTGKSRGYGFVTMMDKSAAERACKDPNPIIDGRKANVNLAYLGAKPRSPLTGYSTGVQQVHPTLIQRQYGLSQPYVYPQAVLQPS
To be noted: 20 nM protein, 1.5 uM RNA pool; 20 mM HEPES pH 7.8, 70 mM KCl, 10 mM NaCl, 10% glycerol, 2 mM DTT, 0.1 ug/uL BSA; 30 min, 4 C (protocol of this paper; not …); cited from earlier work.

For data set [7], the target named is T7, spo5 (Schizosaccharomyces pombe) (UniProt Q2L4W6).
T7 sequence: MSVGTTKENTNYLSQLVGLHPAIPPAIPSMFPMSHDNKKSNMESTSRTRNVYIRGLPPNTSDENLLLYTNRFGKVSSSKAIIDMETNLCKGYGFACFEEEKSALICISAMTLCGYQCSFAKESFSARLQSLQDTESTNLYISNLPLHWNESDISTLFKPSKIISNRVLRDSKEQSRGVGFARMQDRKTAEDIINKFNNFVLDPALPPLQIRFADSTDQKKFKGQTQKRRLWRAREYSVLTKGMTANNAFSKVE
To be noted: 20 nM protein, 1.5 uM RNA pool; 20 mM HEPES pH 7.8, 70 mM KCl, 10 mM NaCl, 10% glycerol, 2 mM DTT, 0.1 ug/uL BSA; 30 min, 4 C.

Data set [8] deals with T8, Y69A2AR.32 L314S (Caenorhabditis elegans) (UniProt H2L0S1).
T8 sequence: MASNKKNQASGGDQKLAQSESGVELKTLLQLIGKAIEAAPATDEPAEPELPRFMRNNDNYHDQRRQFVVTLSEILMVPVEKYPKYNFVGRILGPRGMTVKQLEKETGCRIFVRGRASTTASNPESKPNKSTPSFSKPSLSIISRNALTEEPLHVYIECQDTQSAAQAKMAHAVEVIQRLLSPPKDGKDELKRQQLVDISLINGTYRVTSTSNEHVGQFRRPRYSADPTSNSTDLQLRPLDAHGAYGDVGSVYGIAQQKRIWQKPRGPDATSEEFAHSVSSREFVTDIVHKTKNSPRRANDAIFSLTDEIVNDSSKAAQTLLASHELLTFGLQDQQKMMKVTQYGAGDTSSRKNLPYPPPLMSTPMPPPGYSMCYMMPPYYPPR
The conditions noted are these: 20 nM protein, 1.5 uM RNA pool; 20 mM HEPES pH 7.8, 70 mM KCl, 10 mM NaCl, 10% glycerol, 2 mM DTT, 0.1 ug/uL BSA; 30 min, 4 C.

In data set [9] the target is T9, G3BP2 (Homo sapiens) (UniProt Q9UN86).
T9 sequence: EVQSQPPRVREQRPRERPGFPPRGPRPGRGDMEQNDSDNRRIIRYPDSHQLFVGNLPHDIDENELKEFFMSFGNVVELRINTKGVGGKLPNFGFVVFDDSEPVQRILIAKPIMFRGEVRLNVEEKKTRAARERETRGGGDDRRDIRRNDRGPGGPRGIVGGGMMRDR
The conditions noted are these: 20 nM protein, 1.5 uM RNA pool; 20 mM HEPES pH 7.8, 70 mM KCl, 10 mM NaCl, 10% glycerol, 2 mM DTT, 0.1 ug/uL BSA; 30 min, 4 C (protocol of this paper; not …); cited from earlier work.

AAAUU [RNAcompete motif RNCMPT00288]: the binding signal (z-score (mean of top ten 7-mers)) in [1] was 6.51.

UUAUGUG [RNAcompete motif RNCMPT00326] came in with a binding signal (z-score (mean of top ten 7-mers)) in data set [2] of 8.16.

The substance GCACUU [RNAcompete motif RNCMPT00301] displayed a binding signal (z-score (mean of top ten 7-mers)) in data set [3] of 27.

Take GCACUU [RNAcompete motif RNCMPT00323]: the binding signal (z-score (mean of top ten 7-mers)) in [4] was determined as 11.2.

AAAUU [RNAcompete motif RNCMPT00289]: the binding signal (z-score (mean of top ten 7-mers)) in [5] was 8.84.

As for GUGUGUG [RNAcompete motif RNCMPT00283], the binding signal (z-score (mean of top ten 7-mers)) in data set [6] is 9.92.

AUAUUA [RNAcompete motif RNCMPT00311]: the binding signal (z-score (mean of top ten 7-mers)) in data set [7] worked out at 7.81.

For the substance UACUNG [RNAcompete motif RNCMPT00324], in data set [8], the binding signal (z-score (mean of top ten 7-mers)) was determined as 22.8.

On to AGGAUNA [RNAcompete motif RNCMPT00021], for which, in data set [9], the binding signal (z-score (mean of top ten 7-mers)) was 8.75.
